In patent publication US20220064329A1 (Novo Nordisk, published 2022):

Experiments:
Assay in all cases: SPR, Biacore T200, 25 C; FVII(a) variant captured on anti-Gla Ab 4F6, mAb0842(OA) injected
FVII(a) variant Y118A = target: T1, FVII(a) variant Y118A (human, UniProt P08709 61-466)
T1 construct: hFVII alanine variant in cell culture supernatant
T1 sequence: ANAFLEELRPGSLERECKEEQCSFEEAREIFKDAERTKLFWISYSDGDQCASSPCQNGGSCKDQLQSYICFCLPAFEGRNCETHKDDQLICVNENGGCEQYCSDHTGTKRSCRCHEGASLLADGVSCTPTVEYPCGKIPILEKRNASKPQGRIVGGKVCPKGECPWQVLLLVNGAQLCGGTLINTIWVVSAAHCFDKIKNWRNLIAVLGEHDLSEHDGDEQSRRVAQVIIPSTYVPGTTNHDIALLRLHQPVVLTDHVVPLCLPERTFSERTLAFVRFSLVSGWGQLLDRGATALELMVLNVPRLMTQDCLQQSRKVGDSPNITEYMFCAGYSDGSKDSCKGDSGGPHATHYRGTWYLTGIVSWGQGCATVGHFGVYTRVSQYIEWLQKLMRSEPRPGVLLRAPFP
Experimental: (§1) The running buffer was prepared by diluting 10-fold the 10×HBS-P buffer (supplied by GE Healthcare) and supplemented with 1 mg/ml BSA and 5 mM CaCl2 to give 10 mM HEPES, 150 mM NaCl, 0.05% v/v Polysorbate 20, pH 7.4, 5 mM CaCl2, 1 mg/ml bovine serum albumin (BSA). […] Regeneration of the chip was achieved using 10 mM HEPES, 150 mM NaCl, 20 mM EDTA, 0.05 v/v Polysorbate 20, pH 7.4. Binding data were analysed according to a 1:1 Kinetic model and steady state analysis using BiaEvaluation 4.1 supplied by the manufacturer (Biacore AB, Uppsala, Sweden). Wherever possible, ka, kd and KD values from 1:1 kinetic fitting model are reported. […] An amino acid residue is considered a hot-spot residue if substitution of that amino acid residue with alanine results in an affinity reduction of ten (10) fold or more relative to the wild type.

FVII(a) variant E394A = target: T2, FVII(a) variant E394A (human, UniProt P08709 61-466)
T2 construct: hFVII alanine variant in cell culture supernatant
T2 sequence: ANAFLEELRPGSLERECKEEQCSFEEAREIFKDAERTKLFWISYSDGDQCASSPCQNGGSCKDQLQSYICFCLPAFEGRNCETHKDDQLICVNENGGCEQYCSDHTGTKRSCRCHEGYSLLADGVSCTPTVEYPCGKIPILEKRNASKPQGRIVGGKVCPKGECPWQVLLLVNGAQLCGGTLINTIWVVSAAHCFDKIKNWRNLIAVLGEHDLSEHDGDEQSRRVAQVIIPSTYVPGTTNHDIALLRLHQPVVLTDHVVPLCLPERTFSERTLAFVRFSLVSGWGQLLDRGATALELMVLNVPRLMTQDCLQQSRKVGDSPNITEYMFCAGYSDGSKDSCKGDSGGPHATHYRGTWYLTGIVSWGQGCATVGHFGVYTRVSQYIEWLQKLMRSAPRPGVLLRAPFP
Experimental: as §1

FVII(a) variant S119A = target: T3, FVII(a) variant S119A (human, UniProt P08709 61-466)
T3 construct: hFVII alanine variant in cell culture supernatant
T3 sequence: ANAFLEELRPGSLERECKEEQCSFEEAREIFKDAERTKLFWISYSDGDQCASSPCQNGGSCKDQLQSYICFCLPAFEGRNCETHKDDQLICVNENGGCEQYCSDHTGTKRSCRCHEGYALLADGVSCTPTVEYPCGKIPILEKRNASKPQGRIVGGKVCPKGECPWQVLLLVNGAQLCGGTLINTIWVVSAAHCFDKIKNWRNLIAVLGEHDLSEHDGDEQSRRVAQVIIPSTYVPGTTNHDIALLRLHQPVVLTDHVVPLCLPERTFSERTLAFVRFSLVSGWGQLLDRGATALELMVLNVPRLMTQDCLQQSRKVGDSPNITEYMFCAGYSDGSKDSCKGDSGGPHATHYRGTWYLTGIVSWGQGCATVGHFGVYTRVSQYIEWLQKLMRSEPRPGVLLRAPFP
Experimental: as §1

FVII(a) variant E265A = target: T4, FVII(a) variant E265A (human, UniProt P08709 61-466)
T4 construct: hFVII alanine variant in cell culture supernatant
T4 sequence: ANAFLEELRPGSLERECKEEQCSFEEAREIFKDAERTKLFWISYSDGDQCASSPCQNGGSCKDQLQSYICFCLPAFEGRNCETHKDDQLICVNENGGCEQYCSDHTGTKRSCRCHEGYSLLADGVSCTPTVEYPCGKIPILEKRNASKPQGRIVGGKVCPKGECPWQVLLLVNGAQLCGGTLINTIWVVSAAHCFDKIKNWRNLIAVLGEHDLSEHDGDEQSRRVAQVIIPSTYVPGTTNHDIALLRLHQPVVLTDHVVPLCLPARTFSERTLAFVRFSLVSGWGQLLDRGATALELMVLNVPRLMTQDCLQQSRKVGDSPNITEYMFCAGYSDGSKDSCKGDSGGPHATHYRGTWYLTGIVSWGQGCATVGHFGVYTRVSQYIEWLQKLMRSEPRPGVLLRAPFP
Experimental: as §1

FVII(a) variant V131A = target: T5, FVII(a) variant V131A (human, UniProt P08709 61-466)
T5 construct: hFVII alanine variant in cell culture supernatant
T5 sequence: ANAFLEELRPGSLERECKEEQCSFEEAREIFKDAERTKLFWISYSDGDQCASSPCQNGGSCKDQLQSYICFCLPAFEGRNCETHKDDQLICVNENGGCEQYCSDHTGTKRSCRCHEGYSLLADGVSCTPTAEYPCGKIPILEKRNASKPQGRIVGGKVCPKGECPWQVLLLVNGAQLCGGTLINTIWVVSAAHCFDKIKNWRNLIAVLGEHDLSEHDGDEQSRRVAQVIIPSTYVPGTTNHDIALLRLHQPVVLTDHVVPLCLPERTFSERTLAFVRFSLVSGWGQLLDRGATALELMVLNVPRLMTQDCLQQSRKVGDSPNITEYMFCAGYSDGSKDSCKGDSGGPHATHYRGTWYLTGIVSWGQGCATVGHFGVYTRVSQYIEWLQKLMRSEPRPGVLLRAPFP
Experimental: as §1

B1: mAb0842(OA) (antibody, human IgG4 S228P, kappa)
heavy: QVQLQESGPGLVKPSQTLSLTCTVSGYSISSDSAWSWIRQPPGKGLEWIGYIQYSGSTNYNPSLKSRVTISRDTSKNQFSLKLSSVTAADTAVYYCARSVNYYGNSFAVGYWGQGTLVTVSSASTKGPSVFPLAPCSRSTSESTAALGCLVKDYFPEPVTVSWNSGALTSGVHTFPAVLQSSGLYSLSSVVTVPSSSLGTKTYTCNVDHKPSNTKVDKRVESKYGPPCPPCPAPEFLGGPSVFLFPPKPKDTLMISRTPEVTCVVVDVSQEDPEVQFNWYVDGVEVHNAKTKPREEQFNSTYRVVSVLTVLHQDWLNGKEYKCKVSNKGLPSSIEKTISKAKGQPREPQVYTLPPSQEEMTKNQVSLSCAVKGFYPSDIAVEWESNGQPENNYKTTPPVLDSDGSFFLVSRLTVDKSRWQEGNVFSCSVMHEALHNHYTQKSLSLSLGK
light: EIVLTQSPATLSLSPGERATLSCRASQGISDYLHWYQQKPGEAPRLLIKYTSQPATGIPARFSGSGSGTDFTLTISSLEPEDFAVYYCQNGHSFPLTFGQGTKLEIKRTVAAPSVFIFPPSDEQLKSGTASVVCLLNNFYPREAKVQWKVDNALQSGNSQESVTEQDSKDSTYSLSSTLTLSKADYEKHKVYACEVTHQGLSSPVTKSFNRGEC
chain: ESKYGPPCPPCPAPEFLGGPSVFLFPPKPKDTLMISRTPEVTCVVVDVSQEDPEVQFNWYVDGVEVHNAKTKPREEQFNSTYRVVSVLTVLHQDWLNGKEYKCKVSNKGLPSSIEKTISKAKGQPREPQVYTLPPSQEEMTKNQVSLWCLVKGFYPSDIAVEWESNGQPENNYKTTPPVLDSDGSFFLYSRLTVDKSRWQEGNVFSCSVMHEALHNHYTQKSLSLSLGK
notes: also called monovalent humanized 11F2 antibody; one-armed anti-FVII(a) antibody
- Kd (FVII(a) variant Y118A): 1.48 nM
- Kd (FVII(a) variant E394A): 0.79 nM
- Kd (FVII(a) variant S119A): 0.31 nM
- Kd (FVII(a) variant E265A): 0.98 nM
- Kd (FVII(a) variant V131A): 5.22 nM
